We go through five molecules from patent US5866114A, “Crystallization of M-CSFα” (Chiron Corporation, priority 1995, dated 1999).

For one series, the system named is NFS-60 cells. The series can be described thus: M-CSF dependent NFS-60 bioassay (MTT readout, compared to M-CSF standard). The format is cell-based. The procedure:
Fractionated products were analyzed on reducing SDS-PAGE and stained with Coomassie, according to the method of Laemmli, Nature […] 227:680-685 (1970). Biological activity was determined using the M-CSF dependent NFS-60 bioassay (See Example 10 below). Antibody neutralization experiments were carried out by pre-incubating approximately 5,000 units of M-CSF dimer with varying dilutions of the neutralizing M-CSF 5H410 Mab (made to refolded E. coli CΔ150 M-CSFα dimer) prior to bioassay. (Halenbeck et al, Bio/Technology 7:710 (1989)
The purified mutein dimers were subjected to bioassay using NFS-60 cells which is an M-CSF dependent cell line which forms colonies in the presence of active M-CSF. Standards and purified mutein samples were serially diluted 1:2 in RPMI media (10% fetal bovine serum) in a 50 microliter volume in 96-well microtiter plates. 50 microliters NFS-60 cells (ATCC NO. CRL 1838), maintained in 4000U/ml M-CSF, washed 2×, and diluted to a concentration of 1×10^5 cell/ml, were added to each sample well. Plates were incubated at 37° C., 5% CO2 for 44 h. 5 mg/ml MTT dye was added to each sample and incubation continued for 4 h. 20% SDS was added to each sample. The plates were wrapped in foil and left overnight. The absorbance of each sample was read at 570 nm and compared to a standard of known M-CSF concentration.

Series [1] in a line: Bioactivity after diethylpyrocarbonate (DEPC) modification of histidines. The note with it: 1:100 DEPC:histidine ratio.
The test system of series [2] is cell surface M-CSF receptor (NFS60 cell M-CSF receptors). The series can be described thus: Radioligand displacement of 125I-M-CSF from NFS-60 cell M-CSF receptors (NFS-60 receptor competition assay). The format is binding. The following applies: for IC50: 4° C., 20 hours, 300,000 NFS-60 cells, read-out: IC50 (concentration required to inhibit 50% of labeled M-CSF binding to the cells); for M-CSF receptor-binding ability: compared to parental M-CSFα; for fold decrease in binding affinity: relative to M-CSFα NΔ3CΔ158. The procedure:
FIG. 7 illustrates the competitive binding of M-CSF and M-CSF muteins to NFS60 cell M-CSF receptors.
The purified heterodimer was submitted to the NFS60 cell based bioassay described in Example 8. The calculated specific activity was 2.9×10^6 U/mg which correlated to a 35-fold reduction as compared to the activity of the parental M-CSF heterodimer described in Example 10. The relative binding affinity to cell surface M-CSF receptor was measured by radioligand displacement in which the displacement of ^125 I-M-CSF from an M-CSF receptor by an M-CSF mutein was measured using methods well known in the art. In brief, the following were added in a final volume of 100 μl in each well of a 96-well cell culture plate: approximately 80,000 cpm of purified recombinant human M-CSF labeled with ^125 I (using Iodobeads as described by the manufacturer, Pierce, Rockford, Ill.), 300,000 NFS-60 cells that had been washed and then grown for 18 hours in growth medium minus the normal maintenance level of M-CSF, plus unlabeled M-CSF that had been serially diluted in the same medium. The plates were incubated at 4° C. for 20 hours and the cells were collected on glass-fiber filters. Maximum binding was measured in the absence of unlabeled M-CSF and non-specific binding was measured in the presence of 1000-fold greater concentration of unlabeled M-CSF (compared to labeled M-CSF). The concentration of M-CSF required to inhibit 50% of the labeled M-CSF binding to the cells (IC50) was used to determine differences in affinity. Results are expressed as percent displacement of radioactive M-CSF versus mutein concentration (FIG. 7).
Background: In a radioligand displacement assay an active substance lowers the binding of a labelled ligand.

Positions count from the first letter of the chain named. Names and notes keep the numbering of the source.

B1: 158/221F heterodimer: one chain of short clone (amino acid 4 to 158) and one chain of long clone 221F (protein, UniProt P09603 33-554, looked up, variant C157S C159S)
Macrophage colony-stimulating …: EEVSEYCSHMIGSGHLQSLQRLIDSQMETSCQITFEFVDQEQLKDPVCYLKKAFLLVQDIMEDTMRFRDNTPNAIAIVQLQELSLRLKSCFTKDYEEHDKACVRTFYETPLQLLEKVKNVFNETKNLLDKDWNIFSKNCNNSFAECSSQDVVTKPDSNSLYPKAIPSSDPASVSPHQPLAPSMAPVAGLTWEDSEGTEGSSLLPGEQPLHTVDPGSAKQRPPRSTCQSFEPPETPVVKDSTIGGSPQPRPSVGAFNPGMEDILDSAMGTNWVPEEASGEASEIPVPQGTELSPSRPGGGSMQTEPARPSNFLSASSPLPASAKGQQPADVTGTALPRVGPVRPTGQDWNHTPQKTDHPSALLRDPPEPGSPRISSLRPQGLSNPSTLSAQPQLSRSHSSGSVLPLGELEGRRSTRDRRSPAEPEGGPASEGAARPLPRFNSVPLTDTGHERQSEGSFSPQLQESVFHLLVPSVILVLLAVGGLLFYRWRRRSHQEPQRADSPLEQPEGSPLTQDDRQVELPV
modifications: heterodimer short/long clone
notes: one chain of short clone (amino acid 4 to 158) and one chain of long clone 221F
For B1, the specific activity in the series on NFS-60 cells (calculated using the peak fraction of preparative Phenyl-HPLC) is on record as 8.0×10^7 units/mg. In the series on NFS-60 cells (refolded dimers, SE-HPLC (72 hr of refolding) or Phenyl-HPLC fractions), the “biological activity of heterodimer compared to the two homodimers” value is “fully biologically active in vitro”.

B2: M-CSF: macrophage colony stimulating factor, form not specified, treated with DEPC to modify histidines (protein, UniProt P09603 33-554, looked up)
Macrophage colony-stimulating …: B1 Macrophage colony-stimulating … with S157C, S159C
modifications: DEPC-modified histidines
As to B2, in series [1], the “bioactivity after DEPC modification of histidines” value was “significantly reduced bioactivity”.

B3: H9A, H15A: M-CSF NΔ3CΔ158 with His 9 and His 15 mutated to Ala, refolded dimer (pTAF172-2) (protein, UniProt P09603 33-554, looked up, variant H9A H15A)
Macrophage colony-stimulating …: B1 Macrophage colony-stimulating … with H9A, H15A, S157C, S159C
modifications: residues 4-158, dimer
For the molecule B3, in the series with NFS-60 cells (Example 10), the “fold reduction in biological activity versus parental M-CSF NΔ3CΔ158” value is recorded as ~10,000 fold. In addition, the specific activity in the series with NFS-60 cells (Example 10, purified refolded mutein dimers, same assay as parental reference) is given as 7.6×10^3 U/mg. Besides, in series [2], the IC50 was roughly 1000 nM, the M-CSF receptor-binding ability entry was “greatly decreased” and the “fold decrease in binding affinity” value was 50,000 fold.

B4: Q20A, V78K: double mutant of M-CSF, solvent accessible residues in central portion of helices A and C (protein, UniProt P09603 33-554, looked up, variant Q20A V78K)
Macrophage colony-stimulating …: B1 Macrophage colony-stimulating … with Q20A, V78K, S157C, S159C
Regarding B4, in the series with NFS-60 cells (Example 11), the “fold lower specific biological activity than parental M-CSFα reference standard” value is listed as 8-10 fold and the specific biological activity was 1.4×10^7 U/mg. In series [2], the IC50 was roughly 0.1 nM, the M-CSF receptor-binding ability entry was “decreased” and the “fold decrease in binding affinity” value is recorded as 5 fold.

B5: M-CSFαNΔ3CΔ158 H9A, H15A/M-CSFβNΔ3CΔ221C157S, C159S heterodimer: one subunit of M-CSFα NΔ3CΔ158 H9A, H15A and one subunit of M-CSFβ NΔ3CΔ221 C157S, C159S (protein, UniProt P09603 33-554, looked up, variant H9A H15A C157S C159S)
Macrophage colony-stimulating …: B1 Macrophage colony-stimulating … with H9A, H15A
modifications: heterodimer of truncated α and β forms
On to B5, for which, in the series on NFS-60 cells (Example 12), the “fold reduction in specific activity compared to parental M-CSF heterodimer” value is on record as 35 fold. Further, the calculated specific activity in the series with NFS-60 cells (Example 12, purified heterodimer) was 2.9×10^6 U/mg. Also, in series [2], the “fold increase of IC50 compared to M-CSFα NΔ3CΔ158” value is 30 fold and the IC50 was roughly 0.5 nM.
